The DeepSol protein solubility set

Assay: soluble on expression in E. coli; label from the status in PepcDB or PDB records

Row | Sequence | soluble on expression in E. coli
1 | GPGSMFVEDKGLISEANLRALHVGTLKLHLFLQEWILPVSFSEKYGYKKEVLEEIIERYGSGSAAEARWTFEQLLGECEVPGQISWLEEHISEDIPYFYIADLFDSWCNLHRNLFVCSADAHETAKRSDDRFESELLCKGVIEKAISGVLPYDTAVRALCILAIGCRTNTQFMLKTIKPDFIINRYKLYTDDLAQPIDGNTDVTPLAEVNAATIGLLNALNTELQEQEKLKLWKSSTARKLPLLMQLNATPWCDSVDSLRRGLKGITSNNAATLLEEATQYFRCSELSK | not soluble
2 | GPGSMHFPSIVFRRHGGRQWMQQQSRDPFVLEARRRGYVARSAFKLLEMDDKFTLFSRGNTRVVVDIGCSPGSWLQVIRERCGDKCAVFGVDVLRVASTVTGAVCIQGDFTNPAVREELLARMVTVRAAGVVDVVTSDMCLNRGTGSTSDRQKQEELNRSALAFALEQLVPGGNFVCKVLGSPTAYEELRRDTCRWFVRTDICKPSSSRLTSDEAFMVCRGKREIPRDRSGGCDGTYGGRFGLDDWPGQLRGSPRRRKP | not soluble
3 | GPGSMIPGLPPAFDVECNRMEDVFASVKSRTVGKDGNLLSPEESWVQRELQYYENLYTEQQELTVCLVTFNVACKKPPANLAALISLKMAEDTNRPVDLIMVSLQEVDMSASAMLKEETEASTPWVVGLHAAVGADSRSPSNTPYFAFPPKQLVGLLLCVYLRRQLLPYMQEMSVATVATGALGSMGNKGAIGLRLVLHRTSLCLINVHLAAGQSNVVKT | not soluble
4 | GPGSMITDSHIMRLVTDGRMEMFPAVPPPSADGNGVVMLSCYQRGPLLPPTPPRPSSGRNDRIMWDSWQTRPVPQYRGNPETKTQRGVADWQHVPFACPFLRPVVTDVDRAVRGGNATRWLPTPFVGPQVFTVKDKSAGGVLVEQKEAPSSSTS | not soluble
5 | GPGSMKVGNRDYDPCVKVSLELESLLQHHFQQRQHSKRILKDRLRKAELEIAYLQQSVSAYSEELRVERLKFDTLQRTMEDSKRNHAAELMEQDKIIRDRMCNVDTQARLLVVKTEECERRAQCLQKQEEELLNREKELRFYQASFEAGIMPAQRQIEAERVRMLRAREKAEELLEEARISALATEERRKKLEALHNLEMQFFALEKEEATQRIQIMRQEIFGLVGLISFRRTHVSAAEGDAAKRIRLLEEELASKKEVFELREKEVYLRYQREEQRMRDERKRIISIKEAMRQDYRLVLEGIRLFGNEYSTEPDQLQVDALKDLEKLLFSALDDHQLEITKKL | soluble
6 | GPGSMLAAVAVPSSSSSTAPGTNTAVSDYFLQKIHELRATQKRTLDNFERLEAQRNDLNRRVRHLKEEVQMLQESGSLVVDVVRVMGKNKVLVKAGSGQGKMVVDVDKSVDFKDLTPNARVALRSGTSAIHYILPTKVDPLVSLMKVEKAGKESTYDEIGGLSRQVKEIKEVIELPVKHPKLFEALGIEQPKGVLLYGPPGTGKTLLARAVAHHTDCTFIRVSGAELVQKYIGEGARMVRELFVMAREHSPSIIFMDEIDSIGSSRLESGENGDSEVQRTMLELLNQLDGFEASKNIKVIMATNRMDILDEALLRPGRIDRKIEFPAPDEAARFEILKIHSRKMNLTRGIDLKDIAKKTSNCSGAELKAVCTEAGMFALRERRVHITHEDFVLAVAKVMHKDQDKNVSLKKMWK | not soluble
7 | GPGSMLRAACCVLSGFPASVSRLFFLSWISLVDTALSFPPPRQTEIAPTRVWAGEGGGGGITALQAVTCPSHSTTCAACAGAGQHPPPPCQPPCRCVRVRVCVVHALLLPPPPSLAILLSCAQTTSTSLPPCFRRQSRARPPPHTHTHIHKHRASCAHHLSLPLLPHMSTAADRQAFLRLMGLTDADVTDPDHQPCAMLHSQTSSSHNVTDKVHRGVKYNSPTASSVAGLSHSASLGGDAIQFSLMNTTNTLRDTSPIVASGPSSSSSRPLFSAPRSVHWEEESIATTSHSSQLPQRAGASGCTAAAISEELKDVGNRSFEAGAFREAVQHYTAAIDALAASTTHSSAEVLLLSALYSNRSAAYLQAAHQMPSVEDAYARALCDADRTVSLRTSWFKGYARQGDAYFKLKRYGAAAEAYEMALQLDPRNKTLMNALSESRQRARHAAREELELRRTMRSTTSTTSSLASSMTGQAGSSTWSEGDPRGGAAASQQAQTLSDVYDGGRRRSGQAQQLWAALKHEVEATVHEVTGDAYRLQQLERFRARCSKGATPTARQAAERKTYVKGVTALASGAPASEPMREASVSGSRFSTATRPDVDVSTAAAAAAAERRHVSSVSPFAATALSSEPHLPPRRRSSASAAFDGPVKNARDVPYEFSSAAASAYQQRLLEEFRKRKATKQ | not soluble
8 | GPGSMLRRSYATLRRKASVVLKGQLNPLEALTQIQLGMTPSLPIQRGFLLEHCERQLESLGITEGKLLAMDGRLCTQLTKRIVYELYLSVPFRVFTFDMEFTGPPVFTADGPTEDITELGLYSPLLDETFSCLVRPVCGRKQGPGVEELTHITDMMLEREGIPFVEAWQQFLKFVQTPQPDEISGSEERILLLSHGGKLADVSLIKWTLEKFHMELPPSFVFGDTIHLIRDAHRRRPVTIDKHPPSWKLADLVQWLHIPPTLPAHRAGNDARMTWDALYHTLLRYGDDGMTPREQLVPRFFDAEAKQLLREHTARQAQERAALSLDGTFLLADAKQSTSAGHADSSSIGYSVYRSASDGSGKPGKSGAATDLLDLDFDDIFSEQNKVSASAPIEEFKLDDDDDLHSISAGATSFTASRTLSSTTTSRTADLSVDPAEDDNAVSDVNAASTSTVSPARAAKTATSGGRKGKASGSSRSKEAVEKRNKRRVSAGDDDGGETSDPPAAATRAVFLV | soluble
9 | GPGSMLRRTDRCGQRKVEKLLVANRGEIACRVFRTCREMHIRTVALFCEAERNAKHVVEADEAVCIGPPPAVNSYLRGDHIISVAKQLNVDAIHPGYGFLSENADFAEAVTRSGIEFIGPPASAISLMGSKSESKRIMEAAGVPVVPGYYGENQNVSFLAEEANRVGFPILIKAVSGGGGKGMKIVERPEDFAFMLESAKREAANFFKDDRVILERYVKRPRHIECQIFFDKHGRGVFFFERDCSVQRRYQKVLEEAPAPHLSMEMRQRIGEVALQAAKAVGYVGAGTVEFIFDTSTGDFYFMEMNTRLQVEHPVTEEVCRIKGAPLDLVKLQIKTAMGKPLTFSQEDVALVGSCIEARVYAESPERGFLPESGPLTFIREPFQGVRGPTRTRLDTGFCEGDNVLIHYDPMLAKVISWGRNREDALKGLRQALGEYKVAGINTNIEFLKRCCEAPEFARGGVTTNFISEHEKQLLNAPAVTPKVAAMAATAWLLNRCDNWRGAFRLNGDTSATVHFYIDNRPVEVRLHTEGANYHKIFFSVWDHEGSFAVGSGPVTSKHRDQRSIVNGFTFLFENGMRHTVLAVATEGDVTIIGSFGLHQIRLLPLTDGFGDASMAGGTSAKIVSPMPGKVSKFLVNSGDFVEKGQALMIVEAMKMEHPVKALQDGQVSFLVKEGEVVGSDHVLATVVQKE | not soluble
10 | GPGSMLTLRKQTLPVATATLLLQRRGVEYWGSSVTGRTQPYAQGDLIPRVDNMRHVVSKSSSAAANLTGSNLGVAYDSDTIFSVAGYSRAEKEHYRPLRGIARYKIEPMAESDTVAAQGLLEQAEMSKSISFVVSWWGGVLKDFPSLKKVCDDTFKEEFTSFYKSALSVAHDDAAVKALAVPFVRRQMQEHYISFPMFWRIAEKLADAIEKVPQMQKPARSVSRIAVERVTKIALNTIADEPWALDEMTSPLLFDVSNFRAWHEAGNW | not soluble
11 | GPGSMLVSYLRLQADRRTRHHMMVDGQINPREWFNWHPKEYQPWYFDRHKFLYEQRQYAQFHHLLCHQVYLKDMLHLMRYPEPYTHIIDCRTSTQKMHRWVPHSLWLPRDEVEYALQLSADEFLDMYGFRKPDKSDDVILLSHNGIYSEQAGWEWKKQFFQHVYNYRGGTNELFGESYSDMNVSDVLSPWKGPFPQSGVFVDKWSKRKVLTRTGPFDRQYEMQDFALPDLELEKARHPEEGPRQNMPFGLQ | not soluble
12 | GPGSMMASFTPLDNFKSRSRGVMPTGIVIDKSCRVYVTQIPLERIERDGASAMKSEFEVYGPLESYKMFTDRSGRFIGSALCTYRNPADASMAVYCMDGVEVEGSTLHVEPAKEHGVVLLASGSSSGGNGQHRDHSRGFLRDTQRQWGRGGRGGAGLLGAGRGSGYSTTGREDASNTSELDLCAEELGLAATDGVSPSAANGKWSHDKYEMMAEGKDMDEVLG | not soluble
13 | GPGSMMLQPWLRRGSGATQKYVNGEFKDVPQGDALLVCVPEAHTWFSLHKMLCDPECRRRYPYTQSKKELILRIRRFLNDTLVDQIPALASVQRALEELSFMQPPSDTEAKFKSSLTIEQVPRIMAAVEASRTHSWEDVANTFAAMLKDPRIKNEDAMRMARIFDEMFAENERPK | not soluble
14 | GPGSMNPSAAAYIPQQSDAKGDPKSSSAAAVAKPPSTQPATKLSAAAEPFVPGGPKQMSATSTHVDPKATTEDEKTTAPLLMECPASSLPDSAAAAGAAKKEADENDDSQLDWLPEAQPTDWSESKLPKLFGCHNTAAKATSSAIPLHASWDLYADDHQGSSNMASNSSPTSTMSFEPIFVSNVGDVESFWRLWRYLPAPSALPTVYTYSWFRKDIKPEWEHPRNKKGGTISIVVFDRDRSGLSDKQVLDDVFMAMLVGAVGESFHECSTTLNGIMLKVRSNKPVTLQLWTAHSEVGKLKAFANSVRDTLTKIMGAKTLQKLEYYSHHQKQAATNSLAARMKGKTKISPDHTF | soluble
15 | GPGSMPATEMQSMEMDTVQSMYDSYELISVDPPTYSVLLTATADDPPELRVTIVYDSEGYPETAAPTVRLEHIAKHRRMQTAALAKEIEDLCAEQIGMHSVISVLQKAQEYLTDYAAMEEKAELQRRGDALTKAAASVSTAAPDPTVRIGTAVTRELFAEWSEKHIAEKLQKRVLSEKKSTKLTGRQLWDGTLKNADWDLFEALEDEQDVDLYTLANGEGEEADEVEYDLDDPAEEG | soluble
16 | GPGSMPHGISYYEFPWPDMTAPQQDIVLRSVQVMDYHIKQKGKVLVHCHAGLGRTGLMIACYYVYSQHIPSDEAIALVRKMRPGAIQTTRQAQFIADFEKHLWRLSQAFRVEISDALIDLNLFIQRQRLVLHGEQADLYKSVPLFLHTILCRLLNLTKDNPEAARLALQSLGPSAAPTDTTLSACRIAINRRRFRVQSVRDVSILSFLVCDWFRSTSSPALTEENCDQIVESMRASISKQEGLPLEIRRILSKPARHTLGMVISAFFIISRQVGCVSLTNFAFRCVVDSFNHAFNPIKVRHSPLERELIHKFFLEWGESVGDLYFNYDTVPAAHRTIKRIALASSIVLEATKNTDPPRRSSPSVRTLSVPSSTPEMSSNPAKQTGAPDSALVFSTQSRASHLFDMPLAVETDSESKTRLWRQHLIEYRRDTDGRRGRGERQRPPASSADAKVKR | not soluble
17 | GPGSMPRGSSKSKKEVSEEPKTTGGSGGDATETSPPTPKAKKGKGGDKMLVNEPNDEKHTVEDARTVQTPSDHETSAARKKPPPKDVKDEKKSEPAHGGGRLLKNNPNDEVVPVEGMHNVATPRSGLITTESDGAKGTMLRNAPHDEAIPVSGHAITMDTPKRTIDVHPGTITNTDDDDDPKSTEEEESVPIGRTRGYCNPRPEAINLEAEVPETTAPNLGYKPQEYAMVNANASREVQELFKRILDYQPQTPELPAKLRPFIPDYVPSIGDLDPFCKIPRPDGKPDGLGIYVLDEPSVAQSNPAVVLLELRATNIHSVGGLAEAVDSFEDAANRPEVIDRWINDVKKVHYKKPLPTINYQKPMPEIDLLLQVWPQEFEEFLNSDVQFPPPQIDLDLDQYVRALCCILDIPTYTSLIDSLHVMFTLYQEFRANQHFQHE | soluble
18 | GPGSMQKENDRMRKKKDEAREEEEISIFHCDDGSVYEGRVTRREIPVELPLGMPTPAPASTLRGQPPPEVMPQIVPIQHGKGIFKDAGGTIYDGNWIEGAMCGEGVLQFPSGATYTGGMRANEFCGTGTYNWPDGSRYEGQWENNRMHGFGVYVDAQGGRWAGKFYRGCGVGLLGEIHL | soluble
